{"source": "patent US8546083B2", "about": "“Molecular accessibility assay” (University of Vermont, priority 2007, dated 2013)", "key": {"[1]": {"assay": "Fluorescence of DAPI binding to double stranded DNA", "conditions": "50 nM double stranded DNA, 100 nM DAPI, 10 mM Tris-HCl pH 8.0, 50 mM NaCl, 5 minutes room temperature", "protocol": "(§1) For gel-based substrates, completed reactions were mixed with a dye-free SDS loading buffer (50 mM Tris-HCl (pH 6.8), 100 mM dithiothreitol, 4% SDS, 10% glycerol), heated to 90° C. for 5 minutes, separated by 12% SDS-PAGE, and visualized by PhosphorImager analysis (Bio-Rad Molecular Imager FX) (Bio-Rad Laboratories, Hercules, Calif.). For all other substrates, an equal volume of 200 nM DAPI in 10 mM Tris-HCl (pH 8.0) and 50 mM NaCl was added and incubated for 5 minutes at room temperature prior to fluorescence detection. Final concentrations of the fluorescence effecting molecules at the time of detection in these experiments were 100 nM DAPI, 50 nM substrate, and 25-800 nM enzyme.\n(§2) Fluorescence readings were made on a Synergy HT Multi-Detection Microplate Reader (BIO-TEK) using a tungsten-halogen lamp and 360/40 bandpass excitation filter in conjunction with a 460/40 emission filter. Corning Half Area, NBS treated (Nonbinding Surface), Black, 96-well Microplates plates (Corning #3686) were used for all DAPI-based experiments. The combination of enzymes, DNA, and DAPI were all shown to contribute linearly to changes in the overall fluorescence based on the range of concentrations used; there was therefore no need to correct for the inner filter effect.\nEach of the 4L, 5L, 5R, and N5R substrates, along with their non-damaged counterparts, were initially tested for their ability to associate with DAPI and thereby affect the detected fluorescence. […] In the absence of DNA, there was only a small increase in fluorescence from the addition of DAPI, as would be expected. The differences in fluorescence for each of the DAPI bound substrates are presumably due to both, sequence context and experimental variations in DNA concentration. For example, the 4L sequence is expected to have a lower total fluorescence due to the importance of the 3′ nucleotide following the 5′-AATT-3′ binding sequence in regards to fluorescence intensity (38). Due to the fact that the molecular accessibility assay is based on relative fluorescence, these differences are inconsequential."}, "4L substrate": {"system": "4L substrate", "assay": "DAPI molecular accessibility assay, active fraction determination, 4L substrate", "assay_type": "biochemical", "conditions": "for activity (100*α): 100 nM 4L substrate, 50 mM sodium borohydride; for calculated α value / active fraction: 4L sequence; for active fraction: NaBH4 and NaCNBH3", "protocol": "(§3) Oligonucleotide substrates were purchased from Midland Certified Reagent Co. (Midland, Tex.) and were PAGE purified prior to use. All gel-based comparisons were performed with the following double stranded substrate: (35DHU) 5′-TET-tgtcaatagcaagnggagaagtcaatcgtgagtct-3′ (SEQ ID NO:1) where TET represents the fluorescent label 6-tetrachlorofluorescein and n=5,6-dihydrouracil (DHU). Molecular accessibility DAPI-based experiments were performed with the following double-stranded substrates: (4L) 5′-gccccgccaattnccgccgccgcc-3′ (SEQ ID NO:2), (5L) 5′-gccccgccaattcnccgccgccgcc-3′(SEQ ID NO:3), (5R) 5′-gccccgccgccccgccnaattccgccgccgcc-3′ (SEQ ID NO:4), and (N5R) 5′-gccccgccgccccgccncaattccgccgccgcc-3′ (SEQ ID NO:5) where n=either DHU for damaged substrates or cytosine for non-damaged controls. All complementary strands contained a G residue across from DHU (or across from the cytosine in controls—e.g. Watson-Crick base pairing) and were annealed in 50 mM Tris-HCl (pH 8.0), 50 mM NaCl by heating to 94° C. for 2 minutes and slowly cooling to 4° C. over the period of 1 hour in a Perkin Elmer DNA Thermal Cycler 480. In each case the ratio of damaged to complementary strand during annealing was 1:1.1. Note that the DAPI-based oligonucleotides all differ in location of the AT-rich region in relation to the damaged base.\n(§4) EcoNth, EcoFpg, EcoNei, and NEIL1 were incubated for 30 minutes at 37° C. with 100 nM DHU:G-containing substrates at final concentrations of 50, 100, 200, 400, 800, 1200, or 1600 nM, in the presence of either 50 or 100 mM sodium borohydride (NaBH4) or sodium cyanoborohydride (NaCNBH3), as described in the Figures. Borohydride compounds were dissolved fresh for each independent experiment (one substrate and series of enzyme dilutions) as 1.25× stocks in Milli-Q water. Reactions were initiated by simultaneous addition of enzyme and borohydride solution to annealed substrates utilizing separate multi-pipettes in a 96-well format to a final volume of 100 μL. Except for EcoFpg trapping with sodium cyanoborohydride, the final buffer for each reaction contained 10 mM Tris-HCl (pH 8.0), 60 mM Na^+, and either 50 mM BH4^− or CNBH3^−. In the former case, the final buffer contained 10 mM Tris-HCl (pH 8.0), 110 mM Na^+, and 100 mM CNBH3^−.\nas §1, §2\nGiven a sufficiently high concentration of trapping reagent, and a sufficiently long incubation time, the quantity of ES complex is related to the quantity of total enzyme added, ET, and total substrate added, ST, by the equation: ES=min(αET, βST) where α is the active enzyme fraction, P is the active substrate fraction (fraction cleavable), and min is the minimum function. […]"}, "35DHU substrate": {"system": "35DHU substrate", "assay": "Gel-based Schiff base trapping assay (SDS-PAGE, PhosphorImager), active fraction determination", "assay_type": "biochemical", "conditions": "for α value (active enzyme fraction): 100 nM 35DHU; for active fraction: gel-based, from α values with NaBH4 and NaCNBH3", "protocol": "as §3, §4, §1\nGiven a sufficiently high concentration of trapping reagent, and a sufficiently long incubation time, the quantity of ES complex is related to the quantity of total enzyme added, ET, and total substrate added, ST, by the equation: ES=min(αET, βST) where α is the active enzyme fraction, P is the active substrate fraction (fraction cleavable), and min is the minimum function. Furthermore, holding ST constant while varying ET can be depicted graphically (FIG. 1A) where the rising slope is equivalent to α, the plateau is equivalent to ST*β, and the breakpoint is defined by the relation: ST=(α/β)ET. Therefore, by varying ET from below to well above the constant ST concentration, the active enzyme fraction can be determined by linear regression of all points falling below the ET breakpoint concentration. The decision to include or exclude a given point pre-breakpoint is simply made so as to minimize the root-mean squared deviation from both the pre-breakpoint regression and the post-breakpoint best-fit line with a slope of zero. […]"}, "5R substrate": {"system": "5R substrate", "assay": "DAPI molecular accessibility assay, active fraction determination, 5R substrate", "assay_type": "biochemical", "conditions": "5R sequence, NaBH4 and NaCNBH3", "protocol": "(§5) Oligonucleotide substrates were purchased from Midland Certified Reagent Co. (Midland, Tex.) and were PAGE purified prior to use. All gel-based comparisons were performed with the following double stranded substrate: (35DHU) 5′-TET-tgtcaatagcaagnggagaagtcaatcgtgagtct-3′ (SEQ ID NO:1) where TET represents the fluorescent label 6-tetrachlorofluorescein and n=5,6-dihydrouracil (DHU). […]\nas §1\n(§6) Fluorescence readings were made on a Synergy HT Multi-Detection Microplate Reader (BIO-TEK) using a tungsten-halogen lamp and 360/40 bandpass excitation filter in conjunction with a 460/40 emission filter. […]"}, "5L substrate": {"system": "5L substrate", "assay": "DAPI molecular accessibility assay, active fraction determination, 5L substrate", "assay_type": "biochemical", "conditions": "5L sequence, NaBH4 and NaCNBH3", "protocol": "as §5, §1, §6"}, "N5R substrate": {"system": "N5R substrate", "assay": "DAPI molecular accessibility assay, active fraction determination, N5R substrate", "assay_type": "biochemical", "conditions": "N5R sequence; for calculated α value: NaBH4 and NaCNBH3", "protocol": "as §3\nEcoNth, EcoFpg, EcoNei, and NEIL1 were incubated for 30 minutes at 37° C. with 100 nM DHU:G-containing substrates at final concentrations of 50, 100, 200, 400, 800, 1200, or 1600 nM, in the presence of either 50 or 100 mM sodium borohydride (NaBH4) or sodium cyanoborohydride (NaCNBH3), as described in the Figures. […]\nas §1\nas §2, with “Corning Half Area, NBS treated (Nonbinding Surface), Black, 96-well Microplates plates (Corning #3686) were used for all DAPI-based experiments.” left out, “effect. […]” for “effect.”"}, "[2]": {"conditions": "NaCNBH3 (50 mM EcoNth, 100 mM EcoFpg), 30 minutes 37° C."}, "[3]": {"conditions": "EcoNth range stated jointly for 4L, 5L, 5R"}}, "data": [{"molecule": "5′-gccccgccaattcnccgccgccgcc-3′ [5L]", "values": [{"measurement": "FI (Fluorescence Intensity)", "setting": "[1]", "result": "65.9 ± 2.6 x10^−3"}]}, {"molecule": "5′-gccccgccgccccgccnaattccgccgccgcc-3′ [5R]", "values": [{"measurement": "FI (Fluorescence Intensity)", "setting": "[1]", "result": "69.5 ± 2.9 x10^−3"}]}, {"molecule": "NEIL1: human ortholog of endonuclease VIII, recent purification with good activity", "values": [{"measurement": "activity (100*α)", "setting": "4L substrate", "result": "over 50%"}]}, {"molecule": "5′-gccccgccgccccgccncaattccgccgccgcc-3′ [N5R]", "values": [{"measurement": "FI (Fluorescence Intensity)", "setting": "[1]", "result": "60.7 ± 3.0 x10^−3"}]}, {"molecule": "5′-gccccgccaattnccgccgccgcc-3′ [4L]", "values": [{"measurement": "FI (Fluorescence Intensity)", "setting": "[1]", "result": "55.2 ± 2.8 x10^−3"}]}, {"molecule": "EcoNei: Escherichia coli endonuclease VIII, purification known to have little activity (protein, UniProt P50465 2-263, looked up) Endonuclease 8: PEGPEIRRAADNLEAAIKGKPLTDVWFAFPQLKPYQSQLIGQHVTHVETRGKALLTHFSNDLTLYSHNQLYGVWRVVDTGEEPQTTRVLRVKLQTADKTILLYSASDIEMLTPEQLTTHPFLQRVGPDVLDPNLTPEVVKERLLSPRFRNRQFAGLLLDQAFLAGLGNYLRVEILWQVGLTGNHKAKDLNAAQLDALAHALLEIPRFSYATRGQVDENKHHGALFRFKVFHRDGEPCERCGSIIEKTTLSSRPFYWCPGCQH", "values": [{"measurement": "activity (100*α)", "setting": "4L substrate", "result": "less than 5%"}]}, {"molecule": "EcoFpg: Escherichia coli formamidopyrimidine-DNA glycosylase, purified recombinant enzyme preparation (protein, UniProt P05523 2-269, looked up) Formamidopyrimidine-DNA …: PELPEVETSRRGIEPHLVGATILHAVVRNGRLRWPVSEEIYRLSDQPVLSVQRRAKYLLLELPEGWIIIHLGMSGSLRILPEELPPEKHDHVDLVMSNGKVLRYTDPRRFGAWLWTKELEGHNVLTHLGPEPLSDDFNGEYLHQKCAKKKTAIKPWLMDNKLVVGVGNIYASESLFAAGIHPDRLASSLSLAECELLARVIKAVLLRSIEQGGTTLKDFLQSDGKPGYFAQELQVYGRKGEPCRVCGTPIVATKHAQRATFYCRQCQK", "values": [{"measurement": "α value (active enzyme fraction)", "setting": "35DHU substrate; 50 mM NaBH4, 30 minutes 37° C.", "result": 0.121}, {"measurement": "α value (active enzyme fraction)", "setting": "35DHU substrate; [2]", "result": 0.147}, {"measurement": "active fraction", "setting": "35DHU substrate", "result": "approximately 13%"}, {"measurement": "active fraction", "setting": "5R substrate", "result": "~11", "unit": "%"}, {"measurement": "calculated α value", "setting": "5R substrate; [3]", "result": "slightly lower"}, {"measurement": "calculated α value", "setting": "4L substrate; 50 mM NaBH4", "result": 0.154}, {"measurement": "calculated α value", "setting": "4L substrate; 100 mM NaCNBH3", "result": 0.136}, {"measurement": "active fraction", "setting": "4L substrate", "result": "approximately 14%"}, {"measurement": "calculated α value", "setting": "5L substrate; [3]", "result": "significantly lower"}, {"measurement": "calculated α value", "setting": "N5R substrate", "result": "significantly lower"}]}, {"molecule": "EcoNth: Escherichia coli endonuclease III, purified recombinant enzyme preparation (protein, UniProt P0AB83 1-211, looked up) Endonuclease III: MNKAKRLEILTRLRENNPHPTTELNFSSPFELLIAVLLSAQATDVSVNKATAKLYPVANTPAAMLELGVEGVKTYIKTIGLYNSKAENIIKTCRILLEQHNGEVPEDRAALEALPGVGRKTANVVLNTAFGWPTIAVDTHIFRVCNRTQFAPGKNVEQVEEKLLKVVPAEFKVDCHHWLILHGRYTCIARKPRCGSCIIEDLCEYKEKVDI", "values": [{"measurement": "α value (active enzyme fraction)", "setting": "35DHU substrate; 50 mM NaBH4, 30 minutes 37° C.", "result": 0.199}, {"measurement": "α value (active enzyme fraction)", "setting": "35DHU substrate; [2]", "result": 0.206}, {"measurement": "active fraction", "setting": "35DHU substrate", "result": "approximately 20%"}, {"measurement": "active fraction", "setting": "4L substrate", "result": "19-24%"}, {"measurement": "active fraction", "setting": "5L substrate", "result": "19-24%"}, {"measurement": "active fraction", "setting": "N5R substrate; NaBH4 (first value, figure order)", "result": "approximately 12%"}, {"measurement": "calculated α value", "setting": "N5R substrate", "result": "lower"}, {"measurement": "active fraction", "setting": "N5R substrate; NaCNBH3 (second value, figure order)", "result": "~16", "unit": "%"}]}]}
